# Test results published in the RNAGym collection of RNA variant scans (doi:10.1073/pnas.2313332121).
# Variants at the floor of the assay were thinned out.
# B1: TPR 5TU (parent)
# chain: GGAUCUUCUCGAUCUAACAAAAAAGACAAAUCUGCCACAAAGCUUGAGAGCAUCUUCGGAUGCAGAGGCGGCAGCCUUCGGUGGCGCGAUAGCGCCAACGUUCUCAACUAUGACACGCAAAACGCGUGCUCCGUUGAAUGGAGUUUAUCAUG
# Variants of: B1
# Test: polymerase ribozyme fitness, log enrichment relative to wild type (log ratio); higher = more active; in vitro selection for triplet polymerase activity
# In short: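 Streptavidin-bead capture of gel-excised extended constructs, followed by RT-PCR, closed a single triplicate in vitro selection round. That round began by annealing PCR-built, transcribed mutant libraries of each subunit of a heterodimeric triplet polymerase ribozyme with a biotinylated primer, the partner subunit and triplets, then incubating them frozen at −7 °C. After Illumina sequencing of inputs and outputs, genotypes needed ≥10 input reads and ≥1 read per output. Fitness is the base-2 logarithm of genotype enrichment over wild-type enrichment, using inverse-variance-weighted replicate averages.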
row,Variant,polymerase ribozyme fitness (log ratio)
1,A47C A119G,0.0948
2,G25C C85U A89U U135G,≤ -4.2
3,C5G C54U G84A U127G,≤ -4.2
4,C10U U13C A17U C76A C105U,≤ -4.2
5,A23U U148C,-4.13
6,C43A G50A C72U G84U U90A C103A G141U,≤ -4.2
7,A52G U144A,-0.831
8,A21U A26G U33A A142C G143U U146G C149G,≤ -4.2
9,C85G C123G U139A,≤ -4.2
10,U56A U109C,-3.5
11,G67C G94A U139A A142U,≤ -4.2
12,A89C U130A,-3.07
13,G68U C69A A113G G117A,≤ -4.2
14,A28U G65U U82G U101G C103A G152U,≤ -4.2
15,A40U C87U A89G,-3.2
16,U7G U82A G117U,-3.65
17,C38U A89G,-1.07
18,A22U G86C,-3.34
19,A30G C54G A121U U139A U145C,≤ -4.2
20,C118G A119G,0.312
21,G68U C79A U102G A119G,≤ -4.2

row,Variant,polymerase ribozyme fitness (log ratio)
1,C10A C79A A97G A150G,≤ -4.2
2,A21G U31A C95A,0.669
3,U31C A41U A115G U144G,-1.6
4,C75G C129U,≤ -4.2
5,C51A G86A C118A,-3.43
6,A40U U56A G80C G84U C99A G143U,≤ -4.2
7,A16U A19U A40G,≤ -4.2
8,A20U U61A C72A C75U C93G C99A C131G,≤ -4.2
9,U6G U13G U44A A60G C69G C93A C118A,≤ -4.2
10,A3U C5G U7C A30C C36U U55A A60G C75U C87G U101A A119C C123G G143U,≤ -4.2
11,A21U C35A G50C A91G U134G,≤ -4.2
12,A64C G65A G84U C116G U139C,≤ -4.2
13,A20C A47U C51U C105U U144A,-2.59
14,A20U C93G,≤ -4.2
15,C51U G84A C96A C149U,-2.56
16,C14G A30U U61A G92A C99A A115G,≤ -4.2
17,A28C U61A G88A,≤ -4.2
18,C51U C75U C118U,-1.3
19,C32G U55A,-3.78
20,G59A C79U,-3.86
21,A17C G88A A91G U148A,-4.03

row,Variant,polymerase ribozyme fitness (log ratio)
1,G46C G70A C75G A119C,≤ -4.2
2,U15C A17U A60G G62C A91U,≤ -4.2
3,A20G C51U,-0.842
4,A52C C103A A147C,≤ -4.2
5,G128A G141A G143U U144G U151A,≤ -4.2
6,A21U C54A C96U,-2.01
7,G68A C72U,-4.15
8,A23G C93U U101A G140U,-3.86
9,C38U C54U C57A G84A C118U,-1.06
10,A17U C32G C57A U139A,≤ -4.2
11,A28G A49U U56A A66U U90G A106U C108G A119G,≤ -4.2
12,U6A U146G A150G G152A,-1.38
13,C69U C76G,≤ -4.2
14,U15G A47C G83C,-1.85
15,A23U C43G G48A G92A A98G A147U G152C,-3.84
16,C63U C69A C87A G140C,≤ -4.2
17,A3G A41U C96U,-1.56
18,A20C A52U C93U C95A C96A U109A C125U,≤ -4.2
19,C43A C57G G84A,≤ -4.2
20,A17G G83U U134A,-2.39
21,A40C G94U C129G U139A G141U U146C,≤ -4.2

row,Variant,polymerase ribozyme fitness (log ratio)
1,A3U G46A G50U U56A G74A G84U U130A U144C C149U,≤ -4.2
2,A12U U56G A89G C93A A113G,-3.89
3,U4C C57A C87A U146A A150C,≤ -4.2
4,C5U,0.998
5,A24G C93U,-3.49
6,G67U C76G G143A A150G,≤ -4.2
7,A21G U31G C38U A66G C93A G124U U144A,≤ -4.2
8,C76U G86U,-2.16
9,G59A C76G C93G,≤ -4.2
10,A26U C93U C118U C125A,≤ -4.2
11,G42U G71U G88U G92C A97C A122G U134C,≤ -4.2
12,A29C A41C G62A G84A U90A C118G,≤ -4.2
13,U135A A147U,-0.75
14,A39G A91G A137G,≤ -4.2
15,C5G A29G G46U A60G,≤ -4.2
16,A37G,-1.24
17,C8U A20G U33A U56A C95A C131A,≤ -4.2
18,A22U G94C C95G C96A A122U,≤ -4.2
19,C85U U146G U148C,-2.24
20,G58C C69A,-2.62
21,G50U C95A U109C,≤ -4.2
